Data published in the supplement of paper PMC11246515.
± gives the standard deviation of the averaged measurements.

Test: total protein half-life in vivo (active degradation + dilution); higher = more stable protein
[1] = E. coli NCM3722 delta-clpP delta-lon delta-hslV, growth: N-lim chemostat, doubling time 6 h
[2] = E. coli NCM3722 delta-clpP, growth: N-lim chemostat, doubling time 6 h
[3] = E. coli NCM3722 delta-hslV, growth: N-lim chemostat, doubling time 6 h
[4] = E. coli NCM3722 delta-lon, growth: N-lim chemostat, doubling time 6 h
[5] = E. coli NCM3722 delta-smpB, growth: N-lim chemostat, doubling time 6 h
[6] = wild type E. coli NCM3722, growth: C-lim chemostat, doubling time 3 h
[7] = wild type E. coli NCM3722, growth: C-lim chemostat, doubling time 6 h
[8] = wild type E. coli NCM3722, growth: C-lim chemostat, doubling time 12 h
[9] = wild type E. coli NCM3722, growth: N-lim chemostat, doubling time 6 h
[10] = wild type E. coli NCM3722, growth: N-lim chemostat, doubling time 12 h
[11] = wild type E. coli NCM3722, growth: P-lim chemostat, doubling time 6 h
[12] = wild type E. coli NCM3722, growth: P-lim chemostat, doubling time 12 h

Sequence | total protein half-life in vivo [1] | total protein half-life in vivo [2] | total protein half-life in vivo [3] | total protein half-life in vivo [4] | total protein half-life in vivo [5] | total protein half-life in vivo [6] | total protein half-life in vivo [7] | total protein half-life in vivo [8] | total protein half-life in vivo [9] | total protein half-life in vivo [10] | total protein half-life in vivo [11] | total protein half-life in vivo [12]
MHLRHLFSSRLRGSLLLGSLLVVSSFSTQAAEEMLRKAVGKGAYEMAYSQQENALWLATSQSRKLDKGGVVYRLDPVTLEVTQAIHNDLKPFGATINNTTQTLWFGNTVNSAVTAIDAKTGEVKGRLVLDDRKRTEEVRPLQPRELVADDATNTVYISGIGKESVIWVVDGGNIKLKTAIQNTGKMSTGLALDSEGKRLYTTNADGELITIDTADNKILSRKKLLDDGKEHFFINISLDTARQRAFITDSKAAEVLVVDTRNGNILAKVAAPESLAVLFNPARNEAYVTHRQAGKVSVIDAKSYKVVKTFDTPTHPNSLALSADGKTLYVSVKQKSTKQQEATQPDDVIRIAL | 5.6 ± 0.52 h | 5.877 ± 0.042 h | 5.99 ± 0.71 h | 5.44 ± 0.31 h | 5.53 ± 0.97 h | 3.14 ± 0.065 h | 6.05 ± 0.6 h | 12.2 ± 1.1 h | 5.63 ± 0.093 h | 11.5 ± 1.1 h | 5.44 ± 0.17 h | 11.4 ± 0.18 h
MKCPVCHQGEMVSGIKDIPYTFRGRKTVLKGIHGLYCVHCEESIMNKEESDAFMAQVKAFRASVNAETVAPEFIVKVRKKLSLTQKEASEIFGGGVNAFSRYEKGNAQPHPSTIKLLRVLDKHPELLNEIR | 4.78 ± 0.28 h | 1.229 ± 0.0039 h | 1.01 h | 3.01 ± 0.085 h | 0.847 ± 0.046 h | 0.559 ± 0.062 h | 1.07 ± 0.12 h | 1.23 h | 0.993 h | 1.08 h | 1.13 h | 1.6 ± 0.84 h
MRIIDNLEQFRQIYASGKKWQRCVEAIENIDNIQPGVAHSIGDSLTYRVETDSATDALFTGHRRYFEVHYYLQGQQKIEYAPKETLQVVEYYRDETDREYLKGCGETVEVHEGQIVICDIHEAYRFICNNAVKKVVLKVTIEDGYFHNK [P0AC73] |  |  |  |  |  | 2.92 ± 0.37 h | 6.04 ± 0.63 h | 9.85 h |  |  |  | 
MITHFRQAIEETLPWLSSFGADPAGGMTRLLYSPEWLETQQQFKKRMAASGLETRFDEVGNLYGRLNGTEYPQEVVLSGSHIDTVVNGGNLDGQFGALAAWLAIDWLKTQYGAPLRTVEVVAMAEEEGSRFPYVFWGSKNIFGLANPDDVRNICDAKGNSFVDAMKACGFTLPNAPLTPRQDIKAFVELHIEQGCVLESNGQSIGVVNAIVGQRRYTVTLNGESNHAGTTPMGYRRDTVYAFSRICHQSVEKAKRMGDPLVLTFGKVEPRPNTVNVVPGKTTFTIDCRHTDAAVLRDFTQQLENDMRAICDEMDIGIDIDLWMDEEPVPMNKELVATLTELCEREKLNYRVMHSGAGHDAQIFAPRVPTCMIFIPSINGISHNPAERTNITDLAEGVKTLALMLYQLAWQK |  |  |  |  | 2.26 ± 0.15 h | 2.76 ± 0.21 h | 3.86 ± 0.11 h | 7.08 ± 1.6 h |  | 3.88 h | 3.54 h | 6.32 h
MEFFKKTALAALVMGFSGAALALPNITILATGGTIAGGGDSATKSNYTVGKVGVENLVNAVPQLKDIANVKGEQVVNIGSQDMNDNVWLTLAKKINTDCDKTDGFVITHGTDTMEETAYFLDLTVKCDKPVVMVGAMRPSTSMSADGPFNLYNAVVTAADKASANRGVLVVMNDTVLDGRDVTKTNTTDVATFKSVNYGPLGYIHNGKIDYQRTPARKHTSDTPFDVSKLNELPKVGIVYNYANASDLPAKALVDAGYDGIVSAGVGNGNLYKSVFDTLATAAKTGTAVVRSSRVPTGATTQDAEVDDAKYGFVASGTLNPQKARVLLQLALTQTKDPQQIQQIFNQY |  | 5.6 ± 1.2 h | 6.41 ± 0.082 h | 5.53 ± 0.3 h | 6.23 ± 0.81 h |  | 5.38 ± 0.38 h | > 16 h | 6.03 ± 0.47 h | 12.3 ± 0.7 h | 6.54 ± 0.46 h | 13 ± 0.46 h
MSDMAERLALHEFTENAYLNYSMYVIMDRALPFIGDGLKPVQRRIVYAMSELGLNASAKFKKSARTVGDVLGKYHPHGDSACYEAMVLMAQPFSYRYPLVDGQGNWGAPDDPKSFAAMRYTESRLSKYSELLLSELGQGTADWVPNFDGTLQEPKMLPARLPNILLNGTTGIAVGMATDIPPHNLREVAQAAIALIDQPKTTLDQLLDIVQGPDYPTEAEIITSRAEIRKIYENGRGSVRMRAVWKKEDGAVVISALPHQVSGARVLEQIAAQMRNKKLPMVDDLRDESDHENPTRLVIVPRSNRVDMDQVMNHLFATTDLEKSYRINLNMIGLDGRPAVKNLLEILSEWLVFRRDTVRRRLNYRLEKVLKRLHILEGLLVAFLNIDEVIEIIRNEDEPKPALMSRFGLTETQAEAILELKLRHLAKLEEMKIRGEQSELEKERDQLQGILASERKMNNLLKKELQADAQAYGDDRRSPLQEREEAKAMSEHDMLPSEPVTIVLSQMGWVRSAKGHDIDAPGLNYKAGDSFKAAVKGKSNQPVVFVDSTGRSYAIDPITLPSARGQGEPLTGKLTLPPGATVDHMLMESDDQKLLMASDAGYGFVCTFNDLVARNRAGKALITLPENAHVMPPVVIEDASDMLLAITQAGRMLMFPVSDLPQLSKGKGNKIINIPSAEAARGEDGLAQLYVLPPQSTLTIHVGKRKIKLRPEELQKVTGERGRRGTLMRGLQRIDRVEIDSPRRASSGDSEE [P0AFI2] | 5.85 ± 0.14 h | 6.82 ± 1.4 h | 3.67 ± 0.47 h | 3.93 ± 0.34 h | 3.2 ± 0.17 h | 2.44 ± 0.17 h | 3.745 ± 0.031 h | 5.99 ± 0.32 h | 3.42 ± 0.22 h | 5.17 ± 0.29 h | 2.947 ± 0.025 h | 5.43 ± 0.56 h
MNAIWIAVAAVSLLGLAFGAILGYASRRFAVEDDPVVEKIDEILPQSQCGQCGYPGCRPYAEAISCNGEKINRCAPGGEAVMLKIAELLNVEPQPLDGEAQEITPARMVAVIDENNCIGCTKCIQACPVDAIVGATRAMHTVMSDLCTGCNLCVDPCPTHCISLQPVAETPDSWKWDLNTIPVRIIPVEHHA | 2.26 ± 0.093 h | 1.52 h |  |  | 0.89 h |  | 0.945 h |  |  |  |  | 1.92 ± 0.49 h
MQILFNDQAMQCAAGQTVHELLEQLDQRQAGAALAINQQIVPREQWAQHIVQDGDQILLFQVIAGG | 2.75 h |  |  |  |  |  |  | 4.47 h | 1.3 h |  | 3.24 h | 5.24 ± 0.77 h
